Data taken from patent US20160264649A1.

Key:
Assay in all cases: cell-based or functional assay
[1] = biological target: HIV-1 Env of isolate 6535.3 (subtype B) (HIV-1)
[2] = biological target: HIV-1 Env of isolate 92TH021 (subtype AE) (HIV-1)
[3] = biological target: HIV-1 Env of isolate 92UG024 (subtype D) (HIV-1)
[4] = biological target: HIV-1 Env of isolate 92UG031 (subtype A) (HIV-1)
[5] = biological target: HIV-1 Env of isolate 92UG114 (subtype D) (HIV-1)
[6] = biological target: HIV-1 Env of isolate 92WR009 (subtype A) (HIV-1)
[7] = biological target: HIV-1 Env of isolate 92WR020 (subtype A) (HIV-1)
[8] = biological target: HIV-1 Env of isolate 92WR024 (subtype A) (HIV-1)
[9] = biological target: HIV-1 Env of isolate 93TH305 (subtype B) (HIV-1)
[10] = biological target: HIV-1 Env of isolate 94 KE 105 (subtype AC) (HIV-1)
[11] = biological target: HIV-1 Env of isolate 94UG103 (subtype A) (HIV-1)
[12] = biological target: HIV-1 Env of isolate 97ZA012 (subtype C) (HIV-1)
[13] = biological target: HIV-1 Env of isolate 98IN022 (subtype C) (HIV-1)
[14] = biological target: HIV-1 Env of isolate APV_17 (subtype B) (HIV-1)
[15] = biological target: HIV-1 Env of isolate CAAN.A2 (subtype B) (HIV-1)
[16] = biological target: HIV-1 Env of isolate MG RM-C-019 (subtype C) (HIV-1)
[17] = biological target: HIV-1 Env of isolate MG RM-C-027 (subtype C) (HIV-1)
[18] = biological target: HIV-1 Env of isolate MGRM-AE-001 (subtype AE) (HIV-1)
[19] = biological target: HIV-1 Env of isolate MGRM-AE-002 (subtype AE) (HIV-1)
[20] = biological target: HIV-1 Env of isolate MGRM-AE-004 (subtype AE) (HIV-1)
[21] = biological target: HIV-1 Env of isolate MGRM-AE-005 (subtype AE) (HIV-1)
[22] = biological target: HIV-1 Env of isolate MGRM-AE-006 (subtype AE) (HIV-1)
[23] = biological target: HIV-1 Env of isolate MGRM-AE-007 (subtype AE) (HIV-1)
[24] = biological target: HIV-1 Env of isolate MGRM-Chronic-B-008 (subtype B) (HIV-1)
[25] = biological target: HIV-1 Env of isolate MGRM-Chronic-B-010 (subtype B) (HIV-1)
[26] = biological target: HIV-1 Env of isolate MGRM-Chronic-B-012 (subtype B) (HIV-1)
[27] = biological target: HIV-1 Env of isolate MGRM-Chronic-B-017 (subtype B) (HIV-1)
[28] = biological target: HIV-1 Env of isolate MGRM-Chronic-B-023 (subtype B) (HIV-1)
[29] = biological target: HIV-1 Env of isolate MGRM-D-002 (subtype D) (HIV-1)
[30] = biological target: HIV-1 Env of isolate MGRM-D-003 (subtype D) (HIV-1)
[31] = biological target: HIV-1 Env of isolate MGRM-D-014 (subtype D) (HIV-1)
[32] = biological target: HIV-1 Env of isolate MGRM-D-016 (subtype D) (HIV-1)
[33] = biological target: HIV-1 Env of isolate MGRM-D-019 (subtype D) (HIV-1)
[34] = biological target: HIV-1 Env of isolate MGRM-D-020 (subtype D) (HIV-1)
[35] = biological target: HIV-1 Env of isolate MGRM-D-024 (subtype D) (HIV-1)
[36] = biological target: HIV-1 Env of isolate MGRM-F1-010 (subtype F) (HIV-1)
[37] = biological target: HIV-1 Env of isolate MGRM-F1-012 (subtype F) (HIV-1)
[38] = biological target: HIV-1 Env of isolate MGRM-F1-013 (subtype F) (HIV-1)
[39] = biological target: HIV-1 Env of isolate MGRM-F1-016 (subtype F) (HIV-1)
[40] = biological target: HIV-1 Env of isolate SC422661.8 (subtype B) (HIV-1)
[41] = biological target: HIV-1 Env of isolate TRJ04551.58 (subtype B) (HIV-1)
[42] = biological target: HIV-1 Env of pseudovirus isolate MGRM-G-001 (subtype G) (HIV-1)
[43] = biological target: HIV-1 Env of pseudovirus isolate MGRM-G-014 (subtype G) (HIV-1)
[44] = biological target: HIV-1 Env of pseudovirus isolate MGRM-G-015 (subtype G) (HIV-1)
[45] = biological target: HIV-1 Env of pseudovirus isolate MGRM-G-016 (subtype G) (HIV-1)
[46] = biological target: HIV-1 Env of pseudovirus isolate MGRM-G-024 (subtype G) (HIV-1)

For 1496_C09 (PG9) (TCN-109) (antibody), the IC50 [1] was 1.05 µg/mL, the IC50 (pseudovirus neutralization) [2] was 0.059 µg/mL and the IC50 (neutralization) [3] was 1.86 µg/mL. For the same substance, the IC50 (pseudovirus neutralization) [4] was 3.6 µg/mL, the IC50 (pseudovirus neutralization) [5] was 40.6 µg/mL and the IC50 (pseudovirus neutralization) [6] was 0.05 µg/mL. For the same substance, the IC50 (pseudovirus neutralization) [7] was 0.141 µg/mL, the IC50 (pseudovirus neutralization) [8] was 0.258 µg/mL and the IC50 [9] was 8.12 µg/mL. It also gave an IC50 (pseudovirus neutralization) [10] of 37.9 µg/mL, an IC50 (pseudovirus neutralization) [11] of 0.34 µg/mL and an IC50 (µg/mL), pseudovirus neutralization [12] of 3.4 µg/mL. The IC50 (µg/mL), pseudovirus neutralization [13] was 0.003 µg/mL, the IC50 [14] was 34.8 µg/mL and the IC50 [15] was 19.3 µg/mL. For the same substance, the IC50 (µg/mL), pseudovirus neutralization [16] was 0.005 µg/mL, the IC50 (µg/mL), pseudovirus neutralization [17] was 5.36 µg/mL and the IC50 (pseudovirus neutralization) [18] was 20.6 µg/mL. The IC50 (pseudovirus neutralization) [19] was 0.04 µg/mL, the IC50 (pseudovirus neutralization) [20] was 0.009 µg/mL and the IC50 (pseudovirus neutralization) [21] was 0.282 µg/mL. The IC50 (pseudovirus neutralization) [22] was 0.063 µg/mL, the IC50 (pseudovirus neutralization) [23] was 0.18 µg/mL and the IC50 [24] was 8.78 µg/mL. It also gave an IC50 [25] of 0.004 µg/mL, an IC50 [26] of 0.2 µg/mL and an IC50 [27] of 0.688 µg/mL. The IC50 [28] was 0.027 µg/mL, the IC50 (pseudovirus neutralization) [29] was 0.021 µg/mL and the IC50 (pseudovirus neutralization) [30] was 0.033 µg/mL. For the same substance, the IC50 (pseudovirus neutralization) [31] was 0.023 µg/mL, the IC50 (pseudovirus neutralization) [32] was 0.098 µg/mL and the IC50 (pseudovirus neutralization) [33] was 0.038 µg/mL. The IC50 (pseudovirus neutralization) [34] was 1.67 µg/mL, the IC50 (pseudovirus neutralization) [35] was 0.038 µg/mL and the IC50 (pseudovirus neutralization) [36] was 0.012 µg/mL. It also gave an IC50 (pseudovirus neutralization) [37] of 0.023 µg/mL, an IC50 (pseudovirus neutralization) [38] of 1.25 µg/mL and an IC50 (pseudovirus neutralization) [39] of 0.518 µg/mL. The IC50 [40] was 1.48 µg/mL, the IC50 (µg/mL), pseudovirus neutralization [41] was 0.858 µg/mL and the IC50 [42] was 0.166 µg/mL. For the same substance, the IC50 [43] was 16.5 µg/mL, the IC50 [44] was 6.6 µg/mL and the IC50 [45] was 1.36 µg/mL. It also gave an IC50 [46] of 0.163 µg/mL.

In the case of PGV04 (antibody), the IC50 [1] is reported as 0.757 µg/mL, the IC50 (pseudovirus neutralization) [2] is reported as 1.29 µg/mL and the IC50 (neutralization) [3] is reported as 0.201 µg/mL. The IC50 (pseudovirus neutralization) [4] was 4.46 µg/mL, the IC50 (pseudovirus neutralization) [5] was 0.461 µg/mL and the IC50 (pseudovirus neutralization) [6] was 0.108 µg/mL. For the same substance, the IC50 (pseudovirus neutralization) [7] was 0.055 µg/mL, the IC50 (pseudovirus neutralization) [8] was 0.31 µg/mL and the IC50 [9] was 0.255 µg/mL. The IC50 (pseudovirus neutralization) [10] was 2.98 µg/mL, the IC50 (pseudovirus neutralization) [11] was 0.202 µg/mL and the IC50 (µg/mL), pseudovirus neutralization [12] was 0.041 µg/mL. The IC50 (µg/mL), pseudovirus neutralization [13] was 5.69 µg/mL, the IC50 [14] was 0.309 µg/mL and the IC50 [15] was 2.26 µg/mL. The IC50 (µg/mL), pseudovirus neutralization [16] was 9.63 µg/mL, the IC50 (µg/mL), pseudovirus neutralization [17] was 2.76 µg/mL and the IC50 (pseudovirus neutralization) [18] was 0.063 µg/mL. It also gave an IC50 (pseudovirus neutralization) [19] of 0.569 µg/mL, an IC50 (pseudovirus neutralization) [20] of 0.183 µg/mL and an IC50 (pseudovirus neutralization) [21] of 0.051 µg/mL. For the same substance, the IC50 (pseudovirus neutralization) [22] was > 50 µg/mL, the IC50 (pseudovirus neutralization) [23] was 5.75 µg/mL and the IC50 [24] was 0.166 µg/mL. The IC50 [25] was 0.744 µg/mL, the IC50 [26] was > 50 µg/mL and the IC50 [27] was 0.129 µg/mL. For the same substance, the IC50 [28] was 0.139 µg/mL, the IC50 (pseudovirus neutralization) [29] was 0.322 µg/mL and the IC50 (pseudovirus neutralization) [30] was > 50 µg/mL. It also gave an IC50 (pseudovirus neutralization) [31] of 0.194 µg/mL, an IC50 (pseudovirus neutralization) [32] of 0.201 µg/mL and an IC50 (pseudovirus neutralization) [33] of 0.35 µg/mL. For the same substance, the IC50 (pseudovirus neutralization) [34] was 0.097 µg/mL, the IC50 (pseudovirus neutralization) [35] was > 50 µg/mL and the IC50 (pseudovirus neutralization) [36] was 0.184 µg/mL. The IC50 (pseudovirus neutralization) [37] was 0.25 µg/mL, the IC50 (pseudovirus neutralization) [38] was 0.084 µg/mL and the IC50 (pseudovirus neutralization) [39] was 0.268 µg/mL. The IC50 [40] was 0.11 µg/mL, the IC50 (µg/mL), pseudovirus neutralization [41] was 0.028 µg/mL and the IC50 [42] was > 50 µg/mL. It also gave an IC50 [43] of 0.056 µg/mL, an IC50 [44] of 0.333 µg/mL and an IC50 [45] of 0.019 µg/mL. The IC50 [46] was 0.033 µg/mL.

Work on VRC01 (antibody) yielded an IC50 [1] of 1.75 µg/mL, an IC50 (pseudovirus neutralization) [2] of 0.616 µg/mL and an IC50 (neutralization) [3] of 0.576 µg/mL. For the same substance, the IC50 (pseudovirus neutralization) [4] was 0.469 µg/mL, the IC50 (pseudovirus neutralization) [5] was 0.33 µg/mL and the IC50 (pseudovirus neutralization) [6] was 0.187 µg/mL. It also gave an IC50 (pseudovirus neutralization) [7] of 0.13 µg/mL, an IC50 (pseudovirus neutralization) [8] of 0.327 µg/mL and an IC50 [9] of 0.243 µg/mL. For the same substance, the IC50 (pseudovirus neutralization) [10] was 0.499 µg/mL, the IC50 (pseudovirus neutralization) [11] was 0.285 µg/mL and the IC50 [12] was 0.088 µg/mL. For the same substance, the IC50 [13] was 0.342 µg/mL, the IC50 [14] was 0.477 µg/mL and the IC50 [15] was 0.722 µg/mL. The IC50 [16] was 1.13 µg/mL, the IC50 [17] was 0.125 µg/mL and the IC50 (pseudovirus neutralization) [18] was 0.167 µg/mL. For the same substance, the IC50 (pseudovirus neutralization) [19] was 0.217 µg/mL, the IC50 (pseudovirus neutralization) [20] was 0.187 µg/mL and the IC50 (pseudovirus neutralization) [21] was 0.029 µg/mL. It also gave an IC50 (pseudovirus neutralization) [22] of 4.65 µg/mL, an IC50 (pseudovirus neutralization) [23] of 0.835 µg/mL and an IC50 [24] of 0.155 µg/mL. For the same substance, the IC50 [25] was 0.156 µg/mL, the IC50 [26] was 1.03 µg/mL and the IC50 [27] was 0.141 µg/mL. It also gave an IC50 [28] of 0.275 µg/mL, an IC50 (pseudovirus neutralization) [29] of 0.252 µg/mL and an IC50 (pseudovirus neutralization) [30] of 2.06 µg/mL. For the same substance, the IC50 (pseudovirus neutralization) [31] was 0.332 µg/mL, the IC50 (pseudovirus neutralization) [32] was 0.452 µg/mL and the IC50 (pseudovirus neutralization) [33] was 0.119 µg/mL. It also gave an IC50 (pseudovirus neutralization) [34] of 0.192 µg/mL, an IC50 (pseudovirus neutralization) [35] of 0.366 µg/mL and an IC50 (pseudovirus neutralization) [36] of 0.097 µg/mL. For the same substance, the IC50 (pseudovirus neutralization) [37] was 0.488 µg/mL, the IC50 (pseudovirus neutralization) [38] was 0.17 µg/mL and the IC50 (pseudovirus neutralization) [39] was 0.517 µg/mL. The IC50 [40] was 0.179 µg/mL, the IC50 [41] was 0.06 µg/mL and the IC50 [42] was 0.0371 µg/mL. It also gave an IC50 [43] of 0.056 µg/mL, an IC50 [44] of 0.548 µg/mL and an IC50 [45] of 0.063 µg/mL. The IC50 [46] was 0.025 µg/mL.
